The target in test [1] is Amyloid β 1–40 H6A. Description: SPR; preformed fibrils immobilised on a CM5 chip by amine coupling (3500 RU), probed with monomers of the same variant; monomer onto fibril end; 25 °C, 20 μL/min, 20 mM acetate pH 5.5, 150 mM NaCl; slow phase of dissociation only; KD = RD/RA x KD of Aβ1-40 wt (1 nM, from earlier work).
Test [2] deals with Amyloid β 1–40 H6A. The experiment in a line: SPR; preformed fibrils immobilised on a CM5 chip by amine coupling (3500 RU), probed with monomers of the same variant; monomer onto fibril end; 25 °C, 20 μL/min, 20 mM phosphate pH 7.4, 150 mM NaCl; slow phase of dissociation only; KD = RD/RA x KD of Aβ1-40 wt (100 nM, from earlier work).

Kd, RA (association rate relative to Aβ1-40 wt) and RD (dissociation rate relative to Aβ1-40 wt) data for 1 substance are collected here from paper PMC5434815, “The role of histidines in amyloid β fibril assembly” (Febs Letters, 2017).

Amyloid β 1–40 H6A (peptide): in test [1], the Kd amounted to 1.43 nM, the RA (association rate relative to Aβ1-40 wt) was found to be 1.94 and the RD (dissociation rate relative to Aβ1-40 wt) is 2.78. In test [2], this substance registered a Kd of 427 nM, an RA (association rate relative to Aβ1-40 wt) of 0.45 and an RD (dissociation rate relative to Aβ1-40 wt) of 1.92.
